Experimental data taken from paper PMC10912698.

Assays:
[1] = target: TssZ^R5A/R9A (non-c-di-GMP-binding mutant) as used in the co-IP (Pseudomonas aeruginosa PAO1); test: co-IP; PAO1 lysate co-expressing TssZ-HA (or TssZ^R5A/R9A) and V5-HinK; Anti-HA Affinity Gel, 2 h at 4 °C, 50 mM Tris-HCl pH 8.0, 150 mM NaCl, 0.05% TWEEN-20; blots with anti-V5 and anti-HA; also in strains overexpressing PA2133 (low c-di-GMP) or WspR (high c-di-GMP) and with 0-6.4 μM exogenous c-di-GMP
[2] = target: TssZ-HA (TssZ fused with a HA tag at its carboxyl-terminal) (Pseudomonas aeruginosa PAO1); test: as above

Substance: V5-HinK (HinK fused with V5 tag at its amino-terminal) (natural protein)
- fold change of co-immunoprecipitated V5-HinK against wild-type TssZ [1]: 3.3 fold
- fold change of co-immunoprecipitated V5-HinK, low c-di-GMP lysate (PA2133 overexpressing strain) against the PAO1 control strain [2]: 2.2 fold
